B1: human Spindly^2–359::Strep-tag II (N-terminal coiled-coil region) (domain or fragment, UniProt Q96EA4 2-359, looked up)
chain: EADIITNLRCRLKEAEEERLKAAQYGLQLVESQNELQNQLDKCRNEMMTMTESYEQEKYTLQREVELKSRMLESLSCECEAIKQQQKMHLEKLEEQLSRSHGQEVNELKTKIEKLKVELDEARLSEKQLKHQVDHQKELLSCKSEELRVMSERVQESMSSEMLALQIELTEMESMKTTLKEEVNELQYRQEQLELLITNLMRQVDRLKEEKEEREKEAVSYYNALEKARVANQDLQVQLDQALQQALDPNSKGNSLFAEVEDRRAAMERQLISMKVKYQSLKKQNVFNREQMQRMKLQIATLLQMKGSQTEFEQQERLLAMLEQKNGEIKHLLGEIRNLEKFKNLYDSMESKPSVDSG

Key:
[1] = target: GST::LIC1::6×His, full-length dynein light intermediate chain 1 (residues 1–523) (human, UniProt Q9Y6G9 1-523); experiment: pull-down
[2] = target: B1; experiment: pull-down

Row | binding result [1] | binding result [2] | Binder
1 | binds |  | human BICD2^2–422::Strep-tag II (domain or fragment, UniProt Q8TD16 2-422, looked up) SAPSEEEEYARLVMEAQPEWLRAEVKRLSHELAETTREKIQAAEYGLAVLEEKHQLKLQFEELEVDYEAIRSEMEQLKEAFGQAHTNHKKVAADGESREESLIQESASKEQYYVRKVLELQTELKQLRNVLTNTQSENERLASVAQELKEINQNVEIQRGRLRDDIKEYKFREARLLQDYSELEEENISLQKQVSVLRQNQVEFEGLKHEIKRLEEETEYLNSQLEDAIRLKEISERQLEEALETLKTEREQKNSLRKELSHYMSINDSFYTSHLHVSLDGLKFSDDAAEPNNDAEALVNGFEHGGLAKLPLDNKTSTPKKEGLAPPSPSLVSDLLSELNISEIQKLKQQLMQMEREKAGLLATLQDTQKQLEHTRGSLSEQQEKVTRLTENLSALRRLQASKERQTALDNEKDRDSHEDG
2 | binds |  | B1
3 |  | binds | GST::LIC1::6×His C-terminal region (residues 388–523) (domain or fragment, human, UniProt Q9Y6G9 388-523, looked up) PTAAGRPVDASPRVPGGSPRTPNRSVSSNVASVSPIPAGSKKIDPNMKAGATSEGVLANFFNSLLSKKTGSPGGPGVSGGSPAGGAGGGSSGLPPSTKKSGQKPVLDVHAELDRITRKPVTVSPTTPTSPTEGEAS
4 | binds |  | human Spindly^2–359 F258A::Strep-tag II (domain or fragment, UniProt Q96EA4 2-359, looked up) EADIITNLRCRLKEAEEERLKAAQYGLQLVESQNELQNQLDKCRNEMMTMTESYEQEKYTLQREVELKSRMLESLSCECEAIKQQQKMHLEKLEEQLSRSHGQEVNELKTKIEKLKVELDEARLSEKQLKHQVDHQKELLSCKSEELRVMSERVQESMSSEMLALQIELTEMESMKTTLKEEVNELQYRQEQLELLITNLMRQVDRLKEEKEEREKEAVSYYNALEKARVANQDLQVQLDQALQQALDPNSKGNSLAAEVEDRRAAMERQLISMKVKYQSLKKQNVFNREQMQRMKLQIATLLQMKGSQTEFEQQERLLAMLEQKNGEIKHLLGEIRNLEKFKNLYDSMESKPSVDSG
